Assay results: patent US20200362034A1

Molecular target: human glucagon ligand peptide-1 receptor (GLP1R) (human) (UniProt P43220)
Test: cell-based or functional assay

human glucagon ligand peptide-1 receptor (GLP1R) (human), sequence (P43220 24-463): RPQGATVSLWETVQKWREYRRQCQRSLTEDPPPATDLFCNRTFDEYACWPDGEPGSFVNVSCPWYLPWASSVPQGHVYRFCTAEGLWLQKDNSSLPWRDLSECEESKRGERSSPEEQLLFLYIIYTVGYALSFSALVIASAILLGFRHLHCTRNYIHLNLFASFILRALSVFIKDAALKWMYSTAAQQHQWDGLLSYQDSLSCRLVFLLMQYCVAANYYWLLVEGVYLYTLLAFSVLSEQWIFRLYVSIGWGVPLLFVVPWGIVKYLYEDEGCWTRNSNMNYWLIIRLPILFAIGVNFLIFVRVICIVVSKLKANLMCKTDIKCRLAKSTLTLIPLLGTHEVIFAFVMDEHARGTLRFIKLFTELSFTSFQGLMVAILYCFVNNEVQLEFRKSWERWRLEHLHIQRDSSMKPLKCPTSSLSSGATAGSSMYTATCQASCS

For Extendin-4 (peptide), the EC 50 (nM), cAMP Hunter bioassay on CHO-K1 cells overexpressing human GLP1R was 0.46 nM.
